Test results reported in patent US20230310621A1, “COMPLEXES FOR THE DELIVERY OF PROTEINACEOUS AGENTS” (priority 2020, published 2023).

Legend:
[1] = Ultrafiltration of PAEC; particle recovery by light scattering, free SDS by HPLC-ELSD; type: physicochemical; conditions: filtrate fraction of ultrafiltration
Method: The fraction of SDS under a free form, i.e. not associated to the PAECs, was determined on the following composition: P24/CpG/SDS/DA002: 200/80/200/350 μg/mL. This analysis was done after separation of the PAECs from free SDS, using ultrafiltration. The free SDS concentration in the permeate fraction was then determined by HPLC using an AZorbax 80A Extend-C18 column. 3.0×150 mm, 3.5 μm from Agilent and an Evaporative Light Scattering Detector (ELSD) Alltech® Model 3300.
Particle recovery has been estimated from the mean light scattering of the permeate fraction of ultrafiltration. The particle recovery percentage was measured as the mean and SD of light scattering count rate of 3 measurements; the SDS recovery percentage was measured as mean and SD of 2 HPLC analysis.

[2] = Circular dichroism, % helix in human insulin on storage at 4° C.; type: physicochemical
Method: From these CD spectra we have calculated the % of helix in human insulin overtime of storage at 4° C. on 12-day period. […] The CD spectra were taken […].
The CD analysis was carried out after storing the PAEC for 1, 6 or 12 days at 4° C.

Row | Molecule | SDS recovery (wt %) ([1]; 2 HPLC analysis) | Particle recovery (Id %) ([1]; mean and SD of 3 measurements) | percentage helix content in human insulin, Day 1 ([2]; stored 1 day at 4° C.) [%] | percentage helix content in human insulin, Day 6 ([2]; stored 6 days at 4° C.) [%] | percentage helix content in human insulin, Day 12 ([2]; stored 12 days at 4° C.) [%]
1 | CCCCCCCCCCCCOS(=O)(=O)[O-].[Na+] [Free SDS, sodium dodecyl sulphate] | 100.0 | 0.78 ± 0.07 | – | – | –
2 | Human Insulin: free human insulin, small globular protein, Mw 5808 Da | – | – | 14.6 | 37.4 | 36.9
